Measured values published in the Immune Epitope Database (IEDB).
pKd: −log10 of the molar value.

How the values were obtained:
HLA-A*02:03 = test: IEDB peptide-MHC binding, purified MHC/competitive/fluorescence; filed as Kd, often an IC50 or EC50 that approximates it; ≥ and ≤ were set here for values at or beyond the usual limits of such assays
HLA-A*26:03 = test: as above; conditions: source organism: Vaccinia virus Copenhagen
HLA-A*02:01 = test: as above
HLA-A*01:01 [1] = test: IEDB peptide-MHC binding, purified MHC/direct/fluorescence; filed as Kd, often an IC50 or EC50 that approximates it; ≥ and ≤ were set here for values at or beyond the usual limits of such assays; conditions: source organism: Camelpox virus M-96
HLA-B*15:01 [2] = test: as above; conditions: source organism: Camelpox virus M-96
HLA-B*46:01 [3] = test: as above; conditions: source organism: Camelpox virus M-96
HLA-B*07:02 [4] = test: as above; conditions: source organism: Camelpox virus M-96
HLA-B*08:01 [5] = test: as above; conditions: source organism: Variola virus
HLA-A*03:01 [6] = test: as above; conditions: source organism: Camelpox virus M-96
HLA-B*57:01 [7] = test: as above; conditions: source organism: Camelpox virus M-96
HLA-A*68:02 [8] = test: as above; conditions: source organism: Camelpox virus M-96
HLA-A*26:02 = test: as above; conditions: source organism: Variola virus
HLA-B*18:01 [9] = test: as above; conditions: source organism: Camelpox virus M-96
HLA-B*15:17 [10] = test: as above; conditions: source organism: Camelpox virus M-96
HLA-A*69:01 = test: as above; conditions: source organism: Camelpox virus M-96
HLA-B*08:03 = test: as above; conditions: source organism: Variola virus
HLA-A*11:01 [11] = test: as above; conditions: source organism: Camelpox virus M-96
HLA-B*48:01 = test: as above; conditions: source organism: Camelpox virus M-96
HLA-A*31:01 = test: as above; conditions: source organism: Camelpox virus M-96
HLA-B*40:01 [12] = test: as above; conditions: source organism: Camelpox virus M-96
HLA-B*58:01 [13] = test: as above; conditions: source organism: Camelpox virus M-96
HLA-A*01:01 [14] = test: IEDB peptide-MHC binding, purified MHC/competitive/fluorescence; filed as Kd, often an IC50 or EC50 that approximates it; ≥ and ≤ were set here for values at or beyond the usual limits of such assays; conditions: source organism: Vibrio cholerae
HLA-A*29:02 = test: as above; conditions: source organism: Vibrio cholerae
HLA-B*51:01 = test: as above; conditions: source organism: Vibrio cholerae
HLA-B*44:02 = test: as above; conditions: source organism: Vibrio cholerae
HLA-B*53:01 = test: as above; conditions: source organism: Vibrio cholerae
HLA-B*15:01 [15] = test: as above; conditions: source organism: Vibrio cholerae
HLA-B*46:01 [16] = test: as above; conditions: source organism: Vibrio cholerae
HLA-A*66:01 = test: as above; conditions: source organism: Vibrio cholerae
HLA-B*27:05 = test: as above; conditions: source organism: Vibrio cholerae
HLA-B*07:02 [17] = test: as above; conditions: source organism: Vibrio cholerae
HLA-B*08:01 [18] = test: as above; conditions: source organism: Vibrio cholerae
HLA-A*24:03 = test: as above; conditions: source organism: Vibrio cholerae
HLA-A*03:01 [19] = test: as above; conditions: source organism: Vibrio cholerae
HLA-B*57:01 [20] = test: as above; conditions: source organism: Vibrio cholerae
HLA-A*68:02 [21] = test: as above; conditions: source organism: Vibrio cholerae
HLA-A*02:19 = test: as above; conditions: source organism: Vibrio cholerae
HLA-B*18:01 [22] = test: as above; conditions: source organism: Vibrio cholerae
HLA-A*02:12 = test: as above; conditions: source organism: Vibrio cholerae
HLA-A*23:01 = test: as above; conditions: source organism: Vibrio cholerae
HLA-B*15:17 [23] = test: as above; conditions: source organism: Vibrio cholerae
HLA-A*11:01 [24] = test: as above; conditions: source organism: Vibrio cholerae
HLA-B*14:02 = test: as above; conditions: source organism: Vibrio cholerae
HLA-A*30:02 = test: as above; conditions: source organism: Vibrio cholerae
HLA-A*26:01 = test: as above; conditions: source organism: Vibrio cholerae
HLA-B*40:01 [25] = test: as above; conditions: source organism: Vibrio cholerae
HLA-B*58:01 [26] = test: as above; conditions: source organism: Vibrio cholerae
HLA-C*07:02 = test: IEDB peptide-MHC binding, purified MHC/direct/fluorescence; filed as Kd, often an IC50 or EC50 that approximates it; ≥ and ≤ were set here for values at or beyond the usual limits of such assays; conditions: source organism: Vibrio cholerae
[27] = source organism: Vaccinia virus Copenhagen
[28] = source organism: Vibrio cholerae

Sequence GLYRLNFRR has a pKd (HLA-A*02:03; [27]) of no more than 4.70, a pKd (HLA-A*26:03) of no more than 4.70 and a pKd (HLA-A*02:01; [27]) of 6.02. For the same sequence, the pKd (HLA-A*01:01 [1]) was no more than 4.70, the pKd (HLA-B*15:01 [2]) was no more than 4.70 and the pKd (HLA-B*46:01 [3]) was no more than 4.70. For the same sequence, the pKd (HLA-B*07:02 [4]) was no more than 4.70, the pKd (HLA-B*08:01 [5]) was no more than 4.70 and the pKd (HLA-A*03:01 [6]) was 6.62. The pKd (HLA-B*57:01 [7]) was no more than 4.70, the pKd (HLA-A*68:02 [8]) was no more than 4.70 and the pKd (HLA-A*26:02) was no more than 4.70. The pKd (HLA-B*18:01 [9]) was no more than 4.70, the pKd (HLA-B*15:17 [10]) was no more than 4.70 and the pKd (HLA-A*69:01) was no more than 4.70. The pKd (HLA-B*08:03) was no more than 4.70, the pKd (HLA-A*11:01 [11]) was 6.63 and the pKd (HLA-B*48:01) was no more than 4.70. The pKd (HLA-A*31:01) was 8.77, the pKd (HLA-B*40:01 [12]) was no more than 4.70 and the pKd (HLA-B*58:01 [13]) was no more than 4.70.

For TRAPAPFPL, the pKd (HLA-A*02:03; [28]) was no more than 4.70, the pKd (HLA-A*01:01 [14]) was no more than 5.30 and the pKd (HLA-A*29:02) was no more than 4.70. It also gave a pKd (HLA-B*51:01) of no more than 4.70, a pKd (HLA-B*44:02) of no more than 5.30 and a pKd (HLA-B*53:01) of no more than 5.30. For the same sequence, the pKd (HLA-B*15:01 [15]) was no more than 4.70, the pKd (HLA-B*46:01 [16]) was no more than 4.70 and the pKd (HLA-A*66:01) was no more than 5.30. It also gave a pKd (HLA-B*27:05) of 7.91, a pKd (HLA-B*07:02 [17]) of no more than 5.30 and a pKd (HLA-B*08:01 [18]) of no more than 5.30. For the same sequence, the pKd (HLA-A*24:03) was no more than 4.70, the pKd (HLA-A*03:01 [19]) was no more than 4.70 and the pKd (HLA-B*57:01 [20]) was no more than 4.70. The pKd (HLA-A*68:02 [21]) was 6.89, the pKd (HLA-A*02:19) was no more than 4.70 and the pKd (HLA-B*18:01 [22]) was no more than 4.70. For the same sequence, the pKd (HLA-A*02:12) was no more than 4.70, the pKd (HLA-A*23:01) was 5.46 and the pKd (HLA-B*15:17 [23]) was no more than 4.70. For the same sequence, the pKd (HLA-A*11:01 [24]) was no more than 5.30, the pKd (HLA-B*14:02) was 6.25 and the pKd (HLA-A*30:02) was no more than 5.30. For the same sequence, the pKd (HLA-A*26:01) was no more than 4.70, the pKd (HLA-B*40:01 [25]) was no more than 5.30 and the pKd (HLA-A*02:01; [28]) was no more than 4.70. The pKd (HLA-B*58:01 [26]) was no more than 5.30 and the pKd (HLA-C*07:02) was 7.35.
